Where a chain is given by its changes, count along the chain named. Names and notes keep the numbering of the source. Each block holds one binder with its values, some of them ahead of it.
Experiments:
[1] = target: T1, recombinant his-tagged human Cad-11 (R&D Systems) (human, UniProt P55287 54-617); assay: SPR, rhCad-11 immobilized, SDP051 as analyte, 2 state reaction model (ka1)
T1 construct: also called rhCad-11; recombinant human Cad-11; not shown: his tag
T1 sequence: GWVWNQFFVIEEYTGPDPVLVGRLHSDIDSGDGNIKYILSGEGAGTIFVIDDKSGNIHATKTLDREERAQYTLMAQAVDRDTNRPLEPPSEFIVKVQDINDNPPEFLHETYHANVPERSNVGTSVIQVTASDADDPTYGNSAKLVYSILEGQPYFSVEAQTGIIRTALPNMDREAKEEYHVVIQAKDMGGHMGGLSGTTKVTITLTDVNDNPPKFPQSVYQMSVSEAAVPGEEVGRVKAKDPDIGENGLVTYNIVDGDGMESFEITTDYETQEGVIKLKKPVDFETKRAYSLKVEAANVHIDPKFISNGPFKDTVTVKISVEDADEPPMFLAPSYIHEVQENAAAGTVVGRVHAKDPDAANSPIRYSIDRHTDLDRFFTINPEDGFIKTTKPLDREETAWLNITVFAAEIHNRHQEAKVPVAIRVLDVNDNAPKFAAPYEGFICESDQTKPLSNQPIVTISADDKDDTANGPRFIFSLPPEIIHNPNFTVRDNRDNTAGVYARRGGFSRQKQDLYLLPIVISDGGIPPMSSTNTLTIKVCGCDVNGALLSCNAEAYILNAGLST
Experimental: To determine the affinity of SDP051 for recombinant his-tagged human Cad-11, rhCad-11 (R&D Systems) was immobilized to the chip at a single concentration, high resolution kinetics were determined for SDP051, and a 2-state reaction binding model was successfully fitted to the kinetic data.
Kinetic data were obtained at a flow rate of 40 μL/min to minimize any potential mass transfer effects. An analyte concentration series ranging from 12.5 nM to 0.195 nM was prepared by serial dilution. Two repeats of the blank (no mAb) and the 3.125 nM (first and last cycle) concentration of the analyte were programmed into the kinetic runs in order to check the stability of both the surface and analyte over the kinetic cycles. The SDP051 was injected over the Fcs for 360 seconds, long enough to observe the curvature in association phase.
As rhCad-11 is homodimeric and therefore contained two identical binding epitopes, it is likely that individual mAb molecules become bound sequentially through a first binding site and then both binding sites.

[2] = target: T2, Peptide 4 (first 33 amino acids, G1-G33, of the human Cad-11 EC1 domain) (human); assay: ELISA on biotinylated EC1 peptides
T2 construct: also called PEP4; Peptide 4 immunogen
T2 peptide: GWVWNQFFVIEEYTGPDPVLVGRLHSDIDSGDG
Experimental: The specificity of H1M1 and H14 anti-Cad-11 antibodies was tested further using an ELISA against the first 33 amino acids of the EC1 domains of Cad-11, Cad-7, Cad-8, Cad-20, Cad-24, Cad-9, Cad-18, and MN-Cad. Peptides corresponding to the region of Cad-7, Cad-8, Cad-20, Cad-24, Cad-9, Cad-18, MN-Cad that overlapped with the G1-G33 region of the Cad-11 EC1 domain were synthesized and conjugated to biotin. 100 μl of a 30 ng/ml solution of each of these peptides in PBS-Tween (0.05%) were incubated in each well of a 96-well Netravidin plate for 2-3 hrs at 4° C. and then washed twice with PBS-Tween (0.05%). Various concentrations of the anti-Cad-11 antibody were incubated in each well for 1 hr at 22° C. and then washed twice with PBS-Tween (0.05%). 100 μl of a 1/1000 dilution of a goat anti-mouse IgG secondary antibody were added to each well, incubated for 30 min at 22° C., and then washed twice with PBS-Tween (0.05%). 100 μl/well of room temperature TMB (3,3′,5,5′-tetramethylbenzidine) reagent was added to each well and color was allowed to develop for 5 min at 22° C.

kon [1]: 613000 M⁻¹ s⁻¹
B1: humanized anti-Cad-11 EC1 antibody SDP051 (Vκ1/VH5) (antibody, IgG4, V domains shown)
VH: EVQLVQSGAEVKKPGASVKVSCKASGYSFTGYFMNWVRQAPGQGLEWIGRINPYTGDTFYNQKFKGRVTITVDKSTSTAYMELSSLRSEDTAVYYCGRLGSRYWYFDVWGQGTTVTVSS
VL: DVLMTQTPLSSPVTLGQPASISCRSSQSIIHSNGNTYLEWYLQKPGQSPQLLIYKVSNRFSGVPDRFTGSGSGTDFTLKISRVEAEDVGVYYCFQGSHVPWTFGQGTKLEIK
notes: humanized IgG4 (S241P), kappa

fold higher binding to Cad-11 than to any of the other cadherins tested [2]: > 100 fold
B2: murine H1M1 monoclonal anti-Cad-11 EC1 antibody (hybridoma H1M1, ATCC PTA-9699) (antibody, V domains shown)
VH: EVQLQQSGPELVKPGASVKISCKASGYSFTGYFMNWVKQSHGKSLEWIGRINPYTGDTFYNQKFKGKATLTVDKSSSTAHMELLSLSSEDSAVYYCGRLGSRYWYFDVWGAGTTVTVSS
VL: B1 VL with S11L, T14S, Q17D, P18Q, Q50K, V88L, Q105G
modifications: Biotinylated when used as the labelled competitor in Example 14; the letters are unchanged.
notes: murine antibody raised against Peptide 4; also called SYN0012; SYN0012/H1M1
